Experimental data published in patent US20200079876A1 (BIOVERATIV USA, published 2020).
Positions count from the first letter of the chain named.

T1: recombinant human complement component C1s (rhC1s) (human, UniProt P09871 16-688)
T1 sequence (looked up): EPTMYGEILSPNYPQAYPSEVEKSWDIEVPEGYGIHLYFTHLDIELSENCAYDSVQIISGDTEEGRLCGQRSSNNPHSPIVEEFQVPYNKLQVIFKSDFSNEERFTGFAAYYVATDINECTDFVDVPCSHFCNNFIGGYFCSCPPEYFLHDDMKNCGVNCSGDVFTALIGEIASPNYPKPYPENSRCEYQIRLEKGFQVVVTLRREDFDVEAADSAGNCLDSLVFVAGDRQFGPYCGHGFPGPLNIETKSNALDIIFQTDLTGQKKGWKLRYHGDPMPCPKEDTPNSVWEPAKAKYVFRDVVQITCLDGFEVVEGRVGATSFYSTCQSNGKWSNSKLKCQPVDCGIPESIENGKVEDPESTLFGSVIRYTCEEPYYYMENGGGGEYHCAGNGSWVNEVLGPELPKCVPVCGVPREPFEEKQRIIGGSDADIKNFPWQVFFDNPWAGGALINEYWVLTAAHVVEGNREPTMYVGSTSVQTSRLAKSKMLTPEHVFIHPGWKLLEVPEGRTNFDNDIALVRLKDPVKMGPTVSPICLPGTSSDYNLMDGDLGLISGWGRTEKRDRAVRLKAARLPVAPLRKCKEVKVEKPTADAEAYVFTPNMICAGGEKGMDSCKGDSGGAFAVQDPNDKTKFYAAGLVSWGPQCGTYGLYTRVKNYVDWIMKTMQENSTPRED

T2: purified human activated C1s protein, two-chain form (Homo sapiens, UniProt P09871 16-688)
T2 construct: Purified protein bought from EMD Millipore; Biotin-labeled in the clone screen; also called active C1s; native C1s protein
T2 sequence: T1 sequence (looked up)

T3: Pro-C1s
T3 construct: also called purified pro-C1s protein
T3 chain: T1 sequence (looked up)

B1: antibody IPN-M14 (antibody, V domains shown)
VH: EVKLQQSGAELVRPGASVKLSCTASGFNIKDDYIHWVKQRPEQGLEWIGRIDPADGHTKYAPKFQVKATITADTSSNTAYLQLSSLTSEDTAVYYCARYGYGREVFDYWGQGTTLTVSS
VL: DIVLTQFPTFLAVFLGQRAPISCKASQSVDYDGDSYMNWFQQKTGQPPKILIYDASNLEFGIPTRFSGSGFGTDFPLNIHPVEEEDAAIYFCQQSNEDPWTFGGGPKLEIK
notes: Mouse monoclonal antibody (NZBW hybridoma)
B2: antibody IPN-M8 (antibody, V domains shown)
VH: B1 VH
VL: DIVLTQSPASLAVSLGQRATISCKASQSVDYDGDSYMNWYQQKTGQPPKILIYDASNLESGIPARFSGSGSGTDFTLNIHPVEEEDAAIYYCQQSNEDPWTFGGGTKLEIK
notes: Mouse monoclonal antibody (NZBW hybridoma); Same VL and VH as IPN-M2
B3: antibody IPN-M3 (antibody, V domains shown)
VH: EVQLQQSGAELVRPGASVKLSCTASGFNIKDDYIHWVKQRPEQGLEWIGRIDPADDHTKYAPKFQDKATMTADTSSNTACLQLNSLTSEDTAVYYCAIYGSGWAWFPYWGQGTLVSVSA
VL: B2 VL with P8T, A9D, S10Y, T44P, I50L, D54A, I89T
notes: Mouse monoclonal antibody (NZBW hybridoma); Same VL and VH as IPN-M1 and IPN-M13
B4: antibody IPN-M11 (antibody, V domains shown)
VH: B3 VH with E1Q
VL: DIVMTQSPDYLAVSLGQRAPISCKASQSVDYDGDSYMNWYQQKPGQPPKLLIYAASNLEFGIPTRFSGSGFGTDFPLNIHPVEEEDAATYYCQQSNEDPWTFGGGPKLEIK
notes: as for B1
B5: antibody IPN-M13 (antibody, V domains shown)
VH: B3 VH
VL: B2 VL with P8T, A9D, S10Y, T44P, I50L, D54A, I89T
notes: Mouse monoclonal antibody (NZBW hybridoma); Same VL and VH as IPN-M1 and IPN-M3

Target: T1, recombinant human complement component …
Experiment: cell-based or functional assay

Row | inhibition of C1s protease activity (relative to nafamostat) | Binder
1 | > 50% | B1
2 | > 50% | B2
3 | > 50% | B3
4 | > 50% | B4
5 | > 50% | B5

Target: T1, recombinant human complement component …
Experiment: cell-based or functional assay
Remark: another data set of the same source

Row | Inhibition of C1s Protease Activity (%), single point with clone supernatant, relative to 100 nM nafamostat | Binder
6 | 100% | B1
7 | 100% | B2
8 | 89% | B3
9 | 92% | B4
10 | 96% | B5

Target: T2, purified human activated C1s protein, …
Experiment: bio-layer interferometry (BLI), kinetic analysis

Row | Kd | koff | kon | Binder
11 | 0.207 nM | 0.000231 s⁻¹ | 1.12e+06 M⁻¹ s⁻¹ | B1
12 | 0.213 nM | 0.000234 s⁻¹ | 1.12e+06 M⁻¹ s⁻¹ | B2
13 | 0.187 nM | 0.000158 s⁻¹ | 845000 M⁻¹ s⁻¹ | B3
14 | 0.21 nM | 0.000182 s⁻¹ | 864000 M⁻¹ s⁻¹ | B4
15 | 0.133 nM | 0.000113 s⁻¹ | 851000 M⁻¹ s⁻¹ | B5

Target: T3, Pro-C1s
Experiment: bio-layer interferometry (BLI), kinetic analysis

Row | Kd | koff | kon | Binder
16 | 13.5 nM | 0.000223 s⁻¹ | 16500 M⁻¹ s⁻¹ | B1
17 | 19.7 nM | 0.000178 s⁻¹ | 9080 M⁻¹ s⁻¹ | B2
18 | 102 nM | 0.00041 s⁻¹ | 4040 M⁻¹ s⁻¹ | B3
19 | 35.2 nM | 0.000329 s⁻¹ | 9330 M⁻¹ s⁻¹ | B4
20 | 15.9 nM | 0.000258 s⁻¹ | 16200 M⁻¹ s⁻¹ | B5
